Measurements taken from patent publication US20040087777A1 (NEURALAB, published 2004).
Numbering of substitutions follows the chain as printed.

Legend:
[1] = target: T1, beta amyloid peptide (Aβ) (human, UniProt P05067 672-713, limits assumed); test: ELISA competitive binding assay with biotinylated 3D6
T1 construct: also called A-beta; β-amyloid peptide

[2] = target: T1, beta amyloid peptide (Aβ); test: BIAcore
[3] = target: T1, beta amyloid peptide (Aβ); test: average of ELISA and BIAcore results
… analog, Residue 1 = M = target: T2, … analog, Residue 1 = M; test: rNET
T2 peptide: MAEFRHDSGY

… analog, Residue 1 = A = target: T3, … analog, Residue 1 = A; test: rNET
T3 peptide: AAEFRHDSGY

… analog, Residue 1 = H = target: T4, … analog, Residue 1 = H; test: rNET
T4 peptide: HAEFRHDSGY

… analog, Residue 2 = N = target: T5, … analog, Residue 2 = N; test: rNET
T5 peptide: DNEFRHDSGY

… analog, Residue 3 = Y = target: T6, … analog, Residue 3 = Y; test: rNET
T6 peptide: DAYFRHDSGY

… analog, Residue 2 = Q = target: T7, … analog, Residue 2 = Q; test: rNET
T7 peptide: DQEFRHDSGY

… analog, Residue 3 = K = target: T8, … analog, Residue 3 = K; test: rNET
T8 peptide: DAKFRHDSGY

… analog, Residue 1 = K = target: T9, … analog, Residue 1 = K; test: rNET
T9 peptide: KAEFRHDSGY

… analog, Residue 8 = R = target: T10, … analog, Residue 8 = R; test: rNET
T10 peptide: DAEFRHDRGY

… analog, Residue 1 = C = target: T11, … analog, Residue 1 = C; test: rNET
T11 peptide: CAEFRHDSGY

… analog, Residue 2 = C = target: T12, … analog, Residue 2 = C; test: rNET
T12 peptide: DCEFRHDSGY

… analog, Residue 2 = D = target: T13, … analog, Residue 2 = D; test: rNET
T13 peptide: DDEFRHDSGY

… analog, Residue 3 = Q = target: T14, … analog, Residue 3 = Q; test: rNET
T14 peptide: DAQFRHDSGY

… analog, Residue 1 = P = target: T15, … analog, Residue 1 = P; test: rNET
T15 peptide: PAEFRHDSGY

… analog, Residue 1 = E = target: T16, … analog, Residue 1 = E; test: rNET
T16 peptide: EAEFRHDSGY

… analog, Residue 2 = H = target: T17, … analog, Residue 2 = H; test: rNET
T17 peptide: DHEFRHDSGY

… analog, Residue 1 = S = target: T18, … analog, Residue 1 = S; test: rNET
T18 peptide: SAEFRHDSGY

… analog, Residue 1 = R = target: T19, … analog, Residue 1 = R; test: rNET
T19 peptide: RAEFRHDSGY

… analog, Residue 1 = I = target: T20, … analog, Residue 1 = I; test: rNET
T20 peptide: IAEFRHDSGY

… analog, Residue 1 = L = target: T21, … analog, Residue 1 = L; test: rNET
T21 peptide: LAEFRHDSGY

… analog, Residue 2 = T = target: T22, … analog, Residue 2 = T; test: rNET
T22 peptide: DTEFRHDSGY

… analog, Residue 8 = K = target: T23, … analog, Residue 8 = K; test: rNET
T23 peptide: DAEFRHDKGY

… analog, Residue 3 = N = target: T24, … analog, Residue 3 = N; test: rNET
T24 peptide: DANFRHDSGY

… analog, Residue 2 = K = target: T25, … analog, Residue 2 = K; test: rNET
T25 peptide: DKEFRHDSGY

… analog, Residue 2 = I = target: T26, … analog, Residue 2 = I; test: rNET
T26 peptide: DIEFRHDSGY

… analog, Residue 3 = L = target: T27, … analog, Residue 3 = L; test: rNET
T27 peptide: DALFRHDSGY

… analog, Residue 8 = P = target: T28, … analog, Residue 8 = P; test: rNET
T28 peptide: DAEFRHDPGY

… analog, Residue 1 = N = target: T29, … analog, Residue 1 = N; test: rNET
T29 peptide: NAEFRHDSGY

… analog, Residue 3 = D = target: T30, … analog, Residue 3 = D; test: rNET
T30 peptide: DADFRHDSGY

… analog, Residue 1 = Y = target: T31, … analog, Residue 1 = Y; test: rNET
T31 peptide: YAEFRHDSGY

… analog, Residue 1 = F = target: T32, … analog, Residue 1 = F; test: rNET
T32 peptide: FAEFRHDSGY

… analog, Residue 2 = F = target: T33, … analog, Residue 2 = F; test: rNET
T33 peptide: DFEFRHDSGY

… analog, Residue 3 = W = target: T34, … analog, Residue 3 = W; test: rNET
T34 peptide: DAWFRHDSGY

… analog, Residue 3 = C = target: T35, … analog, Residue 3 = C; test: rNET
T35 peptide: DACFRHDSGY

… analog, Residue 2 = G = target: T36, … analog, Residue 2 = G; test: rNET
T36 peptide: DGEFRHDSGY

… analog, Residue 1 = G = target: T37, … analog, Residue 1 = G; test: rNET
T37 peptide: GAEFRHDSGY

… analog, Residue 3 = P = target: T38, … analog, Residue 3 = P; test: rNET
T38 peptide: DAPFRHDSGY

… analog, Residue 3 = M = target: T39, … analog, Residue 3 = M; test: rNET
T39 peptide: DAMFRHDSGY

… analog, Residue 8 = C = target: T40, … analog, Residue 8 = C; test: rNET
T40 peptide: DAEFRHDCGY

… analog, Residue 1 = W = target: T41, … analog, Residue 1 = W; test: rNET
T41 peptide: WAEFRHDSGY

… analog, Residue 8 = N = target: T42, … analog, Residue 8 = N; test: rNET
T42 peptide: DAEFRHDNGY

… analog, Residue 3 = H = target: T43, … analog, Residue 3 = H; test: rNET
T43 peptide: DAHFRHDSGY

… analog, Residue 8 = H = target: T44, … analog, Residue 8 = H; test: rNET
T44 peptide: DAEFRHDHGY

… analog, Residue 3 = I = target: T45, … analog, Residue 3 = I; test: rNET
T45 peptide: DAIFRHDSGY

… analog, Residue 2 = R = target: T46, … analog, Residue 2 = R; test: rNET
T46 peptide: DREFRHDSGY
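Wherever OD is given: antibody binding measured against single-substituted peptide analogs, each epitope position replaced by every one of 19 non-native amino acids, compared with binding to the native Aβ peptide.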

B1: humanized 3D6 version 1 (antibody, V domains shown)
VH: EVQLLESGGGLVQPGGSLRLSCAASGFTFSNYGMSWVRQAPGKGLEWVASIRSGGGRTYYSDNVKGRFTISRDNAKNSLYLQMNSLRAEDTALYYCVRYDHYSGSSDYWGQGTLVTVSS
VL: YVVMTQSPLSLPVTPGEPASISCKSSQSLLDSDGKTYLNWLLQKPGQSPQRLIYLVSKLDSGVPDRFSGSGSGTDFTLKISRVEAEDVGVYYCWQGTHFPRTFGQGTKVEIK
notes: Human constant regions (light chain vector pCMV-cK); also called humanized 3D6v1; h3D6v1
B1 was tested, and the “fold less binding affinity than 3D6” value [1] was roughly 6 fold, the Kd [2] was 2.06 nM and the koff [2] was 0.000382 s⁻¹. For the same binder, the kon [2] was 185000 M⁻¹ s⁻¹ and the “fold loss of binding affinity against 3D6” value [3] was roughly 3 fold.

B2: humanized 3D6 version 2 (antibody, V domains shown)
VH: B1 VH with A75S, S78T, L93V
VL: B1 VL with Y1D
notes: also called humanized 3D6v2; h3D6v2
A Kd [2] of 2.24 nM, an OD (… analog, Residue 1 = M) of 0.072 OD and an OD (… analog, Residue 1 = A) of 0.643 OD were found for B2 in this work. The OD (… analog, Residue 1 = H) was 0.117 OD, the OD (… analog, Residue 2 = N) was 0.735 OD and the OD (… analog, Residue 3 = Y) was 0.02 OD. The OD (… analog, Residue 2 = Q) was 0.756 OD, the OD (… analog, Residue 3 = K) was 0.09 OD and the OD (… analog, Residue 1 = K) was 0.057 OD. For the same binder, the OD (… analog, Residue 8 = R) was 0.699 OD, the OD (… analog, Residue 1 = C) was 0.628 OD and the OD (… analog, Residue 2 = C) was 0.694 OD. The OD (… analog, Residue 2 = D) was 0.222 OD, the OD (… analog, Residue 3 = Q) was 0.406 OD and the OD (… analog, Residue 1 = P) was 0.144 OD. The OD (… analog, Residue 1 = E) was 0.7 OD, the OD (… analog, Residue 2 = H) was 0.741 OD and the OD (… analog, Residue 1 = S) was 0.762 OD. For the same binder, the OD (… analog, Residue 1 = R) was 0.155 OD, the OD (… analog, Residue 1 = I) was 0.118 OD and the OD (… analog, Residue 1 = L) was 0.148 OD. It also gave an OD (… analog, Residue 2 = T) of 0.712 OD, an OD (… analog, Residue 8 = K) of 0.698 OD and an OD (… analog, Residue 3 = N) of 0.032 OD. For the same binder, the OD (… analog, Residue 2 = K) was 0.722 OD, the OD (… analog, Residue 2 = I) was 0.722 OD and the OD (… analog, Residue 3 = L) was 0.026 OD. For the same binder, the OD (… analog, Residue 8 = P) was 0.694 OD, the OD (… analog, Residue 1 = N) was 0.757 OD and the OD (… analog, Residue 3 = D) was 0.027 OD. It also gave an OD (… analog, Residue 1 = Y) of 0.498 OD, an OD (… analog, Residue 1 = F) of 0.062 OD and an OD (… analog, Residue 2 = F) of 0.717 OD. The OD (… analog, Residue 3 = W) was 0.304 OD, the OD (… analog, Residue 3 = C) was 0.41 OD and the OD (… analog, Residue 2 = G) was 0.72 OD. For the same binder, the OD (… analog, Residue 1 = G) was 0.738 OD, the OD (… analog, Residue 3 = P) was 0.02 OD and the OD (… analog, Residue 3 = M) was 0.027 OD. The OD (… analog, Residue 8 = C) was 0.7 OD, the OD (… analog, Residue 1 = W) was 0.07 OD and the OD (… analog, Residue 8 = N) was 0.7 OD. It also gave an OD (… analog, Residue 3 = H) of 0.02 OD, an OD (… analog, Residue 8 = H) of 0.683 OD and an OD (… analog, Residue 3 = I) of 0.024 OD. For the same binder, the OD (… analog, Residue 2 = R) was 0.719 OD.
